Source: US20210388087A1 (Chugai, published 2021)

target: T1, CD3 epsilon homodimer protein (UniProt P07766 23-126); assay: SPR, CD3 epsilon homodimer on chip, one-arm antibody as analyte;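 note: surface plasmon resonance at 25 °C with CD3 epsilon homodimer amine-coupled to a CM4 sensor chip, antibody injected as analyte, HBS-EP+ as running buffer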
T1 construct: also called CD3 (CD3 epsilon)
T1 sequence (P07766 23-126): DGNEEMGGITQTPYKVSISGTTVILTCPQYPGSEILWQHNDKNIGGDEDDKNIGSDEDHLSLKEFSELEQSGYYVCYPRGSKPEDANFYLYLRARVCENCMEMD

| Binder | KD ratio (KD of CE115HA000/KD of altered form) |
| --- | --- |
| CE115HA000 N53A (antibody, human IgG1, kappa, L234A L235A, N297A, name in Kabat numbering, one-arm antibody) heavy: QVQLVESGGGVVQPGRSLRLSCAASGFTFSNAWMHWVRQAPGKGLEWVAQIKAKSANYATYYAESVKGRFTISRDDSKNSLYLQMNSLKTEDTAVYYCRYVHYGAYYGVDAWGQGTTVTVSSASTKGPSVFPLAPSSKSTSGGTAALGCLVKDYFPEPVTVSWNSGALTSGVHTFPAVLQSSGLYSLSSVVTVPSSSLGTQTYICNVNHKPSNTKVDKKVEPKSCDKTHTCPPCPAPEAAGGPSVFLFPPKPKDTLMISRTPEVTCVVVDVSHEDPEVKFNWYVDGVEVHNAKTKPREEQYASTYRVVSVLTVLHQDWLNGKEYKCKVSNKALPAPIEKTISKAKGQPREPQVYTLPPSRCELTKNQVSLSCAVKGFYPSDIAVEWESNGQPENNYKTTPPVLDSDGSFFLVSKLTVDKSRWQQGNVFSCSVMHEALHNHYTQKSLSLSPDYKDDDDK EPKSSDKTHTCPPCPAPELLGGPSVFLFPPKPKDTLMISRTPEVTCVVVDVSHEDPEVKFNWYVDGVEVHNAKTKPREEQYNSTYRVVSVLTVLHQDWLNGKEYKCKVSNKALPAPIEKTISKAKGQPREPQVCTLPPSRDELTKNQVSLWCLVKGFYPSDIAVEWESNGQPENNYKTTPPVLDSDGSFFLYSKLTVDKSRWQQGNVFSCSVMHEALHNRYTQKSLSLSP light: DIVMTQSPLSLPVTPGEPASISCRSSQSLVHSNRNTYLHWYQQKPGQAPRLLIYKVSNRFSGVPDRFSGSGSGTDFTLKISRVEAEDVGVYYCGQGTQVPYTFGQGTKLEIKRTVAAPSVFIFPPSDEQLKSGTASVVCLLNNFYPREAKVQWKVDNALQSGNSQESVTEQDSKDSTYSLSSTLTLSKADYEKHKVYACEVTHQGLSSPVTKSFNRGEC | 0.55 |
| CE115HA000 N53D (antibody, human IgG1, kappa, L234A L235A, N297A, name in Kabat numbering, one-arm antibody) heavy: QVQLVESGGGVVQPGRSLRLSCAASGFTFSNAWMHWVRQAPGKGLEWVAQIKAKSDNYATYYAESVKGRFTISRDDSKNSLYLQMNSLKTEDTAVYYCRYVHYGAYYGVDAWGQGTTVTVSSASTKGPSVFPLAPSSKSTSGGTAALGCLVKDYFPEPVTVSWNSGALTSGVHTFPAVLQSSGLYSLSSVVTVPSSSLGTQTYICNVNHKPSNTKVDKKVEPKSCDKTHTCPPCPAPEAAGGPSVFLFPPKPKDTLMISRTPEVTCVVVDVSHEDPEVKFNWYVDGVEVHNAKTKPREEQYASTYRVVSVLTVLHQDWLNGKEYKCKVSNKALPAPIEKTISKAKGQPREPQVYTLPPSRCELTKNQVSLSCAVKGFYPSDIAVEWESNGQPENNYKTTPPVLDSDGSFFLVSKLTVDKSRWQQGNVFSCSVMHEALHNHYTQKSLSLSPDYKDDDDK EPKSSDKTHTCPPCPAPELLGGPSVFLFPPKPKDTLMISRTPEVTCVVVDVSHEDPEVKFNWYVDGVEVHNAKTKPREEQYNSTYRVVSVLTVLHQDWLNGKEYKCKVSNKALPAPIEKTISKAKGQPREPQVCTLPPSRDELTKNQVSLWCLVKGFYPSDIAVEWESNGQPENNYKTTPPVLDSDGSFFLYSKLTVDKSRWQQGNVFSCSVMHEALHNRYTQKSLSLSP light: DIVMTQSPLSLPVTPGEPASISCRSSQSLVHSNRNTYLHWYQQKPGQAPRLLIYKVSNRFSGVPDRFSGSGSGTDFTLKISRVEAEDVGVYYCGQGTQVPYTFGQGTKLEIKRTVAAPSVFIFPPSDEQLKSGTASVVCLLNNFYPREAKVQWKVDNALQSGNSQESVTEQDSKDSTYSLSSTLTLSKADYEKHKVYACEVTHQGLSSPVTKSFNRGEC | 0.55 |

More lines, now with the values ahead:

| KD ratio (KD of CE115HA000/KD of altered form) | Binder |
| --- | --- |
| 0.79 | CE115HA000 N53K (antibody, human IgG1, kappa, L234A L235A, N297A, name in Kabat numbering, one-arm antibody) heavy: QVQLVESGGGVVQPGRSLRLSCAASGFTFSNAWMHWVRQAPGKGLEWVAQIKAKSKNYATYYAESVKGRFTISRDDSKNSLYLQMNSLKTEDTAVYYCRYVHYGAYYGVDAWGQGTTVTVSSASTKGPSVFPLAPSSKSTSGGTAALGCLVKDYFPEPVTVSWNSGALTSGVHTFPAVLQSSGLYSLSSVVTVPSSSLGTQTYICNVNHKPSNTKVDKKVEPKSCDKTHTCPPCPAPEAAGGPSVFLFPPKPKDTLMISRTPEVTCVVVDVSHEDPEVKFNWYVDGVEVHNAKTKPREEQYASTYRVVSVLTVLHQDWLNGKEYKCKVSNKALPAPIEKTISKAKGQPREPQVYTLPPSRCELTKNQVSLSCAVKGFYPSDIAVEWESNGQPENNYKTTPPVLDSDGSFFLVSKLTVDKSRWQQGNVFSCSVMHEALHNHYTQKSLSLSPDYKDDDDK EPKSSDKTHTCPPCPAPELLGGPSVFLFPPKPKDTLMISRTPEVTCVVVDVSHEDPEVKFNWYVDGVEVHNAKTKPREEQYNSTYRVVSVLTVLHQDWLNGKEYKCKVSNKALPAPIEKTISKAKGQPREPQVCTLPPSRDELTKNQVSLWCLVKGFYPSDIAVEWESNGQPENNYKTTPPVLDSDGSFFLYSKLTVDKSRWQQGNVFSCSVMHEALHNRYTQKSLSLSP light: DIVMTQSPLSLPVTPGEPASISCRSSQSLVHSNRNTYLHWYQQKPGQAPRLLIYKVSNRFSGVPDRFSGSGSGTDFTLKISRVEAEDVGVYYCGQGTQVPYTFGQGTKLEIKRTVAAPSVFIFPPSDEQLKSGTASVVCLLNNFYPREAKVQWKVDNALQSGNSQESVTEQDSKDSTYSLSSTLTLSKADYEKHKVYACEVTHQGLSSPVTKSFNRGEC |
| 0.55 | CE115HA000 N53H (antibody, human IgG1, kappa, L234A L235A, N297A, name in Kabat numbering, one-arm antibody) heavy: QVQLVESGGGVVQPGRSLRLSCAASGFTFSNAWMHWVRQAPGKGLEWVAQIKAKSHNYATYYAESVKGRFTISRDDSKNSLYLQMNSLKTEDTAVYYCRYVHYGAYYGVDAWGQGTTVTVSSASTKGPSVFPLAPSSKSTSGGTAALGCLVKDYFPEPVTVSWNSGALTSGVHTFPAVLQSSGLYSLSSVVTVPSSSLGTQTYICNVNHKPSNTKVDKKVEPKSCDKTHTCPPCPAPEAAGGPSVFLFPPKPKDTLMISRTPEVTCVVVDVSHEDPEVKFNWYVDGVEVHNAKTKPREEQYASTYRVVSVLTVLHQDWLNGKEYKCKVSNKALPAPIEKTISKAKGQPREPQVYTLPPSRCELTKNQVSLSCAVKGFYPSDIAVEWESNGQPENNYKTTPPVLDSDGSFFLVSKLTVDKSRWQQGNVFSCSVMHEALHNHYTQKSLSLSPDYKDDDDK EPKSSDKTHTCPPCPAPELLGGPSVFLFPPKPKDTLMISRTPEVTCVVVDVSHEDPEVKFNWYVDGVEVHNAKTKPREEQYNSTYRVVSVLTVLHQDWLNGKEYKCKVSNKALPAPIEKTISKAKGQPREPQVCTLPPSRDELTKNQVSLWCLVKGFYPSDIAVEWESNGQPENNYKTTPPVLDSDGSFFLYSKLTVDKSRWQQGNVFSCSVMHEALHNRYTQKSLSLSP light: DIVMTQSPLSLPVTPGEPASISCRSSQSLVHSNRNTYLHWYQQKPGQAPRLLIYKVSNRFSGVPDRFSGSGSGTDFTLKISRVEAEDVGVYYCGQGTQVPYTFGQGTKLEIKRTVAAPSVFIFPPSDEQLKSGTASVVCLLNNFYPREAKVQWKVDNALQSGNSQESVTEQDSKDSTYSLSSTLTLSKADYEKHKVYACEVTHQGLSSPVTKSFNRGEC |
| 0.95 | CE115HA000 N53G (antibody, human IgG1, kappa, L234A L235A, N297A, name in Kabat numbering, one-arm antibody) heavy: QVQLVESGGGVVQPGRSLRLSCAASGFTFSNAWMHWVRQAPGKGLEWVAQIKAKSGNYATYYAESVKGRFTISRDDSKNSLYLQMNSLKTEDTAVYYCRYVHYGAYYGVDAWGQGTTVTVSSASTKGPSVFPLAPSSKSTSGGTAALGCLVKDYFPEPVTVSWNSGALTSGVHTFPAVLQSSGLYSLSSVVTVPSSSLGTQTYICNVNHKPSNTKVDKKVEPKSCDKTHTCPPCPAPEAAGGPSVFLFPPKPKDTLMISRTPEVTCVVVDVSHEDPEVKFNWYVDGVEVHNAKTKPREEQYASTYRVVSVLTVLHQDWLNGKEYKCKVSNKALPAPIEKTISKAKGQPREPQVYTLPPSRCELTKNQVSLSCAVKGFYPSDIAVEWESNGQPENNYKTTPPVLDSDGSFFLVSKLTVDKSRWQQGNVFSCSVMHEALHNHYTQKSLSLSPDYKDDDDK EPKSSDKTHTCPPCPAPELLGGPSVFLFPPKPKDTLMISRTPEVTCVVVDVSHEDPEVKFNWYVDGVEVHNAKTKPREEQYNSTYRVVSVLTVLHQDWLNGKEYKCKVSNKALPAPIEKTISKAKGQPREPQVCTLPPSRDELTKNQVSLWCLVKGFYPSDIAVEWESNGQPENNYKTTPPVLDSDGSFFLYSKLTVDKSRWQQGNVFSCSVMHEALHNRYTQKSLSLSP light: DIVMTQSPLSLPVTPGEPASISCRSSQSLVHSNRNTYLHWYQQKPGQAPRLLIYKVSNRFSGVPDRFSGSGSGTDFTLKISRVEAEDVGVYYCGQGTQVPYTFGQGTKLEIKRTVAAPSVFIFPPSDEQLKSGTASVVCLLNNFYPREAKVQWKVDNALQSGNSQESVTEQDSKDSTYSLSSTLTLSKADYEKHKVYACEVTHQGLSSPVTKSFNRGEC |
| 0.57 | CE115HA000 N53I (antibody, human IgG1, kappa, L234A L235A, N297A, name in Kabat numbering, one-arm antibody) heavy: QVQLVESGGGVVQPGRSLRLSCAASGFTFSNAWMHWVRQAPGKGLEWVAQIKAKSINYATYYAESVKGRFTISRDDSKNSLYLQMNSLKTEDTAVYYCRYVHYGAYYGVDAWGQGTTVTVSSASTKGPSVFPLAPSSKSTSGGTAALGCLVKDYFPEPVTVSWNSGALTSGVHTFPAVLQSSGLYSLSSVVTVPSSSLGTQTYICNVNHKPSNTKVDKKVEPKSCDKTHTCPPCPAPEAAGGPSVFLFPPKPKDTLMISRTPEVTCVVVDVSHEDPEVKFNWYVDGVEVHNAKTKPREEQYASTYRVVSVLTVLHQDWLNGKEYKCKVSNKALPAPIEKTISKAKGQPREPQVYTLPPSRCELTKNQVSLSCAVKGFYPSDIAVEWESNGQPENNYKTTPPVLDSDGSFFLVSKLTVDKSRWQQGNVFSCSVMHEALHNHYTQKSLSLSPDYKDDDDK EPKSSDKTHTCPPCPAPELLGGPSVFLFPPKPKDTLMISRTPEVTCVVVDVSHEDPEVKFNWYVDGVEVHNAKTKPREEQYNSTYRVVSVLTVLHQDWLNGKEYKCKVSNKALPAPIEKTISKAKGQPREPQVCTLPPSRDELTKNQVSLWCLVKGFYPSDIAVEWESNGQPENNYKTTPPVLDSDGSFFLYSKLTVDKSRWQQGNVFSCSVMHEALHNRYTQKSLSLSP light: DIVMTQSPLSLPVTPGEPASISCRSSQSLVHSNRNTYLHWYQQKPGQAPRLLIYKVSNRFSGVPDRFSGSGSGTDFTLKISRVEAEDVGVYYCGQGTQVPYTFGQGTKLEIKRTVAAPSVFIFPPSDEQLKSGTASVVCLLNNFYPREAKVQWKVDNALQSGNSQESVTEQDSKDSTYSLSSTLTLSKADYEKHKVYACEVTHQGLSSPVTKSFNRGEC |
